Laboratory results as given in US20190345246A1 (TYMPOBIO, published 2019).

Assays:
recombinant human IL-1β [1] = target: T1, recombinant human IL-1β (human, UniProt P01584 117-269); experiment: Kinetic Exclusion Assay (KinExA, Sapidyne)
T1 construct: Recombinant protein; The definitions name Peprotech cat. no; also called rhIL-1β; hIL-1β
Excerpt: Kd is a specific type of equilibrium constant that measures the propensity of a larger object to separate (dissociate) reversibly into smaller components. A Kd analysis requires immobilization of one interaction partner (the […] binding partner) to a solid phase which is then used as a probe to capture the other interaction partner. For each experiment, one of the binding partners is titrated in a background of the captured binding partner (CBP) and allowed to reach equilibrium. The solutions are then briefly exposed to the solid phase and a portion of free CBP is captured. The captured CBP is then labelled with a fluorescent secondary molecule. The signals generated from CBP are used to calculate the Kd value which is directly proportional to the concentration of free CBP in the equilibrated sample.

Cynomolgus rIL-1β = target: T2, Cynomolgus rIL-1β (cynomolgus, UniProt P79182 117-268, limits assumed); experiment: cross-reactivity table (direct ELISA)
T2 construct: also called cynomolgus IL-1β
T2 sequence (P79182 117-268 limits assumed): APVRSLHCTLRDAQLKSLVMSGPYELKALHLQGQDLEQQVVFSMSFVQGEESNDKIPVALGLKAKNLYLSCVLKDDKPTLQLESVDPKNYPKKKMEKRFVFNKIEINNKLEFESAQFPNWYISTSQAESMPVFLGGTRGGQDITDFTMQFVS
Protocol: (§1) Plate wells were coated with each protein and incubated overnight at 4° C.

Rhesus monkey rIL-1β = target: T3, Rhesus monkey rIL-1β (rhesus monkey, UniProt P48090 117-269); experiment: cross-reactivity table (direct ELISA)
T3 construct: also called rhesus macaque IL-1β; rhesus IL-1β
T3 sequence (P48090 117-269 limits assumed): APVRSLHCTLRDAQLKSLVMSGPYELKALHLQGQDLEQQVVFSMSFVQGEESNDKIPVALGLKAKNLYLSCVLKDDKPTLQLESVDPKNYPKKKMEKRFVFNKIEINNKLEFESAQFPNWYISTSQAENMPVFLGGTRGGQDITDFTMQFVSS
Protocol: as §1

recombinant human IL-1β [2] = target: T1, recombinant human IL-1β; experiment: cell-based or functional assay
recombinant human IL-1β [3] = target: T1, recombinant human IL-1β; experiment: cell-based or functional assay; remark: listed apart in the source
recombinant canine IL-1β = target: T4, recombinant canine IL-1β (canine, UniProt Q28292 115-266, limits assumed); experiment: cross-reactivity table (Table 2), direct ELISA; text: no detectable binding to canine IL-1β
T4 construct: also called Canine rIL-1β
T4 sequence (looked up): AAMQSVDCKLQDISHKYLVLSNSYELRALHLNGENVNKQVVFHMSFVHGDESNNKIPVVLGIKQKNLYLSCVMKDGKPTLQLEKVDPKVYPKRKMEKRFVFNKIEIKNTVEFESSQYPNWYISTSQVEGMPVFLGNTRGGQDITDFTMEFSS
Protocol: Recombinant human IL-1β 1 mg/ml was diluted with the coating buffer to a final concentration of 2 μg/ml. 50 μl was added to the designated wells. Canine IL-1β, porcine/swine IL-1β, guinea pig IL-1β, human IL-1ra and human IL-6 were diluted in the coating buffer and added to distinct wells on the plates. Plates were incubated overnight at 4° C. […] The bound scFvs and control antibodies were detected with Protein L-Peroxidase L-HRP (1:3000), rabbit anti-goat HRP (1:5000) and streptavidin HRP (1:3000).

recombinant human IL-1β [4] = target: T1, recombinant human IL-1β; experiment: cell-based or functional assay; remark: listed apart in the source

Binder | Kd (recombinant human IL-1β [1]) [pM] | koff (recombinant human IL-1β [1]) [s⁻¹] | kon (recombinant human IL-1β [1]) [M⁻¹ s⁻¹] | binding result (Cynomolgus rIL-1β) | binding result (Rhesus monkey rIL-1β) | IC50, inhibition of IL-1β-induced IL-6 release from normal human dermal fibroblasts (IL-6 ELISA) (recombinant human IL-1β [2]) [pM] | potency relative to IL-1RA, inhibition of IL-1β-induced IL-6 release (recombinant human IL-1β [2]) [fold] | IC50 (column head of Table 2) (recombinant human IL-1β [3]) [pM] | binding result (recombinant canine IL-1β) | IC50 (read off the curve), inhibition of rhIL-1β-induced IL-6 release from human dermal fibroblasts (recombinant human IL-1β [4]) [pM]
DLX-2323 (scFv, Humanized single chain antibody fragment expressed in E. coli (inclusion bodies)) scFv: EIVMTQSPSTLSASVGDRVIITCQASQSIDNWLSWYQQKPGKAPKLLIYRASTLASGVPSRFSGSGSGAEFTLTISSLQPDDFATYYCQNTGGGVSIAFGQGTKLTVLGGGGGSGGGGSGGGGSGGGGSEVQLVESGGGLVQPGGSLRLSCTASGFSLSSAAMAWVRQAPGKGLEWVGIIYDSASTYYASWAKGRFTISRDTSKNTVYLQMNSLRAEDTAVYYCARERAIFSGDFVLWGQGTLVTVSS | 0.756 | 5.7e-06 | 7.55e+06 | binds | binds | 3 | 10 | 2 to 3 | no binding | –
canakinumab (antibody, V domains shown) VH: QVQLVESGGGVVQPGRSLRLSCAASGFTFSVYGMNWVRQAPGKGLEWVAIIWYDGDNQYYADSVKGRFTISRDNSKNTLYLQMNGLRAEDTAVYYCARDLRTGPFDYWGQGTLVTVSS VL: EIVLTQSPDFQSVTPKEKVTITCRASQSIGSSLHWYQQKPDQSPKLLIKYASQSFSGVPSRFSGSGSGTDFTLTINSLEAEDAAAYYCHQSSSLPFTFGPGTKVDIKR | – | – | – | – | – | – | – | – | – | ~60
